Reference: US5710022, “Nuclear mitotic phosphoprotein” (Board of Regents of the University of Texas System, dated 1998)

T1: purified p56-RB (Homo sapiens (Human), UniProt P06400)
T1 sequence: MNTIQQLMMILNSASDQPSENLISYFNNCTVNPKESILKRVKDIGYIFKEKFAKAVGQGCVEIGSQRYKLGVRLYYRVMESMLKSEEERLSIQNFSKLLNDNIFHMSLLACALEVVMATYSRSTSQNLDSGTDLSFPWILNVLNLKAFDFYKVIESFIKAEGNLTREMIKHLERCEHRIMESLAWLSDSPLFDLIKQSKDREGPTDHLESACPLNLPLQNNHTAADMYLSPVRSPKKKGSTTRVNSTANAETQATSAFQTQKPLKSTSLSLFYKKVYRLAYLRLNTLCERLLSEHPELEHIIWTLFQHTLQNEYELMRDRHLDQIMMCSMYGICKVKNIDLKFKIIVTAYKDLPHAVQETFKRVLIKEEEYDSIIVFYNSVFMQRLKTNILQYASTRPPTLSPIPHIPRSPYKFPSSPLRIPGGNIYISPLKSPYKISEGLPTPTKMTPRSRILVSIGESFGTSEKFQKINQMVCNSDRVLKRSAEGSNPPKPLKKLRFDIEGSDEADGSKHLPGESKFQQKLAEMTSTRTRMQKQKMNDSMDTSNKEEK

B1: MBP-10 (other)
chain: LLQGLDEAKNNYIVLQSSVNGLIQEVEDGKQKLEKKDEEISRLKNQIQDQEQLVSKLSQVEGEHQLWKEQNLELRNLTVELEQKIQVLQSKNASLQDTLEVLQSSYKNLENELELTKMDKMSFVEKVNKMTAKETELQREMHEMAQKTAELQEELSGEKNRLAGELQLLLEEIKSSKDQLKELTLENSELKKSLDCMHKDQVEKEGKVREEIAEYQLRLHEAEKKHQALLLDTNKQYEVEIQTYREKLTSKEECLSSQKLEIDLLKSSKEELNNSLKATTQILEELKKTKMDNLKYVNQLKKENERAQGKMKLLIKSCKQLEEEKEILQKELSQLQAAQEKQKTGTVMDTKVDELTTEIKELKETLEEKTKEADEYLDKYCSLLISHEKLEKAKEMLETQVAHLCSQQSKQDSRGSPLLGPVVPGPSPIPSVTEKRLSSGQNKASGKRQRSSGIWENGGGPTPATPESFSKKSKKAVMSGIHPAEDTEGTEFEPEGLPEVVKKGFADIPTGKTSPYILRRTTMATRTSPRLAAQKLALSPLSLGKENLAESSKPTAGGSRSQKVKVAQRSPVDSGTILREPTTKSVPVNNLPERSPTDSPREGLRVKRGRLVPSPKAGLESKGSENCKVQ
B2: MBP-T antigen (other)
chain: MDKVLNREESLQLMDLLGLERSAWGNIPLMRKAYLKKCKEFHPDKGGDEEKMKKMNTLYKKMEDGVKYAHQPDFGGFWDATEIPTYGTDEWEQWWNAFNEENLFCSEEMPSSDDEATADSQHSTPPKKKRKVEDPKDFPSELLSFLSHAVFSNRTLACFAIYTTKEKAALLYKKIMEKYSVTFISRHNSYNHNILFFLTPHRHRVSAINNYAQKLCTFSFLICKGVNKEYLMYSALTRDPFSVIEESLPGGLKEHDFNPEEAEETKQVSWKLVTEYAMETKCDDVLLLLGMYLEFQYSFE
B3: MBP-10/KN (other)
chain: LAGELQLLLEEIKSSKDQLKELTLENSELKKSLDCMHKDQVEKEGKVREEIAEYQLRLHEAEKKHQALLLDTNKQYEVEIQTYREKLTSKEECLSSQKLEIDLLKSSKEELNNSLKATTQILEELKKTKMDNLKYVNQLKKENERAQGKMKLLIKSCKQLEEEKEILQKELSQLQAAQEKQKTGTVMDTKVDELTTEIKELKETLEEKTKEADEYLDKYCSLLISHEKLEKAKEMLETQVAHLCSQQSKQDSRGSPLLGPVVPGPSPIPSVTEKRLSSGQNKASGKRQRSSGIWENGGGPTPATPESFSKKSKKAVMSGIHPAEDTEGTEFEPEGLPEVVKKGFADIPTGKTSPYILRRTTMATRTSPRLAAQKLALSPLSLGKENLAESSKPTAGGSRSQKVKVAQRSPVDSGTILREPTTKSVPVNNLPERSPTDSPREGLRVKRGRLVPSPKAGLESKGSENCKVQ
B4: MBP-10/NB (other)
chain: LLQGLDEAKNNYIVLQSSVNGLIQEVEDGKQKLEKKDEEISRLKNQIQDQEQLVSKLSQVEGEHQLWKEQNLELRNLTVELEQKIQVLQSKNASLQDTLEVLQSSYKNLENELELTKMDKMSFVEKVNKMTAKETELQREMHEMAQKTAELQEELSGEKNRLAGELQLLLEEIKSSKDQLKELTLENSE
B5: MBP-10/H (other)
chain: LLQGLDEAKNNYIVLQSSVNGLIQEVEDGKQKLEKKDEEISRLKNQIQDQEQLVSKLSQVEGEHQLWKEQNLELRNLTVELEQKIQVLQSKNASLQDTLEVLQSSYKNLENELELTKMDKMSFVEKVNKMTAKETELQREMHEMAQKTAELQEELSGEKNRLAGELQLLLEEIKSSKDQLKELTLENSELKKSLDCMHKDQVEKEGKVREEIAEYQLRLHEAEKKHQALLLDTNKQYEVEIQTYREKLTSKEECLSSQKLEIDLLKSSKEELNNSLKATTQILEELKKTKMDNLKYVNQLKKENERAQGKMKLLIKSCKQLEEEKEILQKELSQLQAAQEKQKTGTVMDTKVDELTTEIKELKETLEEKTKEADEYLDKYCSLLISHEKLEKAKEMLETQVAHLCSQQSKQDSRGSPLLGPVVPGPSPIPSVTEKRLSSGQNKA
B6: MBP-10/NI (other)
chain: LGPVVPGPSPIPSVTEKRLSSGQNKASGKRQRSSGIWENGGGPTPATPESFSKKSKKAVMSGIHPAEDTEGTEFEPEGLPEVVKKGFADIPTGKTSPYILRRTTMATRTSPRLAAQKLALSPLSLGKENLAESSKPTAGGSRSQKVKVAQRSPVDSGTILREPTTKSVPVNNLPERSPTDSPREGLRVKRGRLVPSPKAGLESKGSENCKVQ

Legend:
purified p56-RB [1] = target: T1, purified p56-RB; test: blot of purified MBP fusion proteins probed with the Rb-sandwich
purified p56-RB [2] = target: T1, purified p56-RB; test: blot of purified GST fusion proteins probed with the Rb-sandwich (figure legend)
Source text: (§1) (A) Two identical blots containing seven purified MBP fusion proteins were probed with either the "Rb-sandwich" (lanes 1–7) or with an antibody to MBP (New England Biolabs) (lanes 8–14). […] (B) Similarly, two identical blots of the purified GST-fusion proteins were probed with either the "Rb-sandwich" (lanes 15–17) or with an antibody to GST (lanes 18–20). […] (C) A diagram of the different constructs used in this experiment. […] (D) Sequence comparison of the Rb-binding region of mitosin with the Rb-binding domain of E2F-1 (in bold letters) and neighboring residues (SEQ. ID NOS: 3 and 4). […] Dashed lines indicate conserved residues and solid lines indicate identical residues.

purified p56-RB [3] = target: T1, purified p56-RB; test: blot of purified MBP fusion proteins probed with the Rb-sandwich; the faint band in lane 3 is called an artifact in paragraph 24
Source text: as §1

Binder	binding result (purified p56-RB [1])	also measured
B1	binds	
B2	binds	
MSGIHPAEDTEGTEFEPEGLPEVVKKGFADIPTGKTSPYILRRTTM (other) [GST-1045]		binding result (purified p56-RB [2]): binds
B3	binds	
B4	no binding	
B5		binding result (purified p56-RB [3]): no binding
B6	binds	
